This experiment addresses SARS-CoV-2 WA.1 Spike-6P trimer (SARS-CoV-2 (WA.1)). The experiment in a line: cryo-EM structure.

The values below come from paper PMC9628201.

Usually stoichiometry N stands for a count of units in the complex or per binding partner.

In turn, SARS-CoV-2 WA.1 Spike-6P trimer had a stoichiometry N of 3.
